Biological target: S. pombe respiratory complex IV (cytochrome c oxidase), affinity purified through a C-terminal twin-strep tag on subunit Cox5 (S. pombe) (UniProt P07657)
Test: pull-down + SEC; membranes solubilised in 1% GDN; StrepTactin column through Cox5-2xstrep, then Superose 6 Increase in 25 mM KH2PO4 pH 8.0, 150 mM KCl, 0.01% GDN; peaks analysed by reduced minus oxidized difference spectra

Chain of UniProt P07657 (P07657 whole entry, looked up, tested part not stated, one chain of several): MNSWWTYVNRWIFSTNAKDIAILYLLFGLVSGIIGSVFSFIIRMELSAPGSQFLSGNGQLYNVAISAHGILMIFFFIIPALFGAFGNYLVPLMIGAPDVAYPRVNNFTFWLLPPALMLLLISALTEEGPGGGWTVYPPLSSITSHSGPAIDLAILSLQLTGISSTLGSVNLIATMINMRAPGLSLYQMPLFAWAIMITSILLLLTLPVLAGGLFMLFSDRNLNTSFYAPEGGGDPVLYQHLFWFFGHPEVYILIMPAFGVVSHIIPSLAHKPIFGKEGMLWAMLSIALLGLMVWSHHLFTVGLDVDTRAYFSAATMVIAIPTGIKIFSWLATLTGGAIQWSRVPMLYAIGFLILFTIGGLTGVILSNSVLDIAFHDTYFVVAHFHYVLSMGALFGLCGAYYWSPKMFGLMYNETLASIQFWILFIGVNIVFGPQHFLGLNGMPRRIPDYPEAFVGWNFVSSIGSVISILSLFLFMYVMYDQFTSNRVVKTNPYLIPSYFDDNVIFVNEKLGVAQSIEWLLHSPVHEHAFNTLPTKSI

S. pombe respiratory complex III (cyt. bc1 complex)
stoichiometry N: 2 CIII:CIV
